In publication PMC2877774, “Structural and Biochemical Bases for the Redox Sensitivity of Mycobacterium tuberculosis RslA” (Journal of Molecular Biology, 2010):
Values joined by “and” are separate entries in the source; they are usually repeats but may differ in a detail not shown here. Equal entries are not always repeated.

B1: Anti-σ domain (ASD) of Mycobacterium tuberculosis RslA (residues 1–108), Zn2+-bound (domain or fragment)
chain: MTMPLRGLGPPDDTGVREVSTGDDHHYAMWDAAYVLGALSAADRREFEAHLAGCPECRGAVTELCGVPALLSQLDRDEVAAISESAPTVVASGLSPELLPSLLAAVHR
notes: Anti-sigma-L factor RslA, Mycobacterium tuberculosis, cytosolic anti-sigma domain, residues 1-108; also called holo-RslA; Mtb RslA

Legend:
[1] = target: the molecule itself; assay: SEC + other: dynamic light scattering
[2] = target: B1; assay: SPR; BIACORE 2000; RslA immobilised on a CM5 chip at 12 ng/mm2; σ^L, σ2^L, σ4^L as analytes; 20 mM Tris-HCl pH 7.8, 200 mM NaCl, 50 mM imidazole, 1 mM DTT (holo-RslA); details: both partners purified

| Binder | stoichiometry N [1] | Kd [2] |
| --- | --- | --- |
| B1 | 2 and 4 |  |
| Apo-RslA: anti-σ domain of Mycobacterium tuberculosis RslA (residues 1–108), Zn2+-free, oxidized (domain or fragment, disulfide bond between Cys54 and Cys57 in oxidized apo-RslA; Zn2+ removed, For SPR the Zn2+ was removed on the chip with 10 mM H2O2 and 2 mM TPEN; in solution with 1 mM H2O2 and 5 mM TPEN; also called Zn^2+-free RslA; oxidized RslA) MTMPLRGLGPPDDTGVREVSTGDDHHYAMWDAAYVLGALSAADRREFEAHLAGCPECRGAVTELCGVPALLSQLDRDEVAAISESAPTVVASGLSPELLPSLLAAVHR | 2 and 4 |  |
| σ2^L domain of Mycobacterium tuberculosis σ^L (domain or fragment) MARVSGAAAAEAALMRALYDEHAAVLWRYALRLTGDAAQAEDVVQETLLRAWQHPEVIGDTARPARAWLFTVARNMIIDERRSARFRNVV |  | ~2000 nM |
